These are literature values, as cited in publication PMC13348789.

A word on the Kd: it is the constant that tells how readily two partners part at equilibrium.

In this series the target is IL-2Rβ/γc intermediate-affinity receptor (Homo sapiens) (UniProt P14784).
Chain of UniProt P14784 (P14784 27-240, chain 1 of 2): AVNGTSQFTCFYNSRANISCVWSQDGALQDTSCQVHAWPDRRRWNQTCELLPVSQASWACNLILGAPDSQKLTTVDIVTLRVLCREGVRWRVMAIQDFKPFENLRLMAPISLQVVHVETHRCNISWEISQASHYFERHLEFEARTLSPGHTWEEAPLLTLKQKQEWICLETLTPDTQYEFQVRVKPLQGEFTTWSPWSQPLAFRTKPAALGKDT
Chain of UniProt P14784 (P31785 23-262, chain 2 of 2, further chain): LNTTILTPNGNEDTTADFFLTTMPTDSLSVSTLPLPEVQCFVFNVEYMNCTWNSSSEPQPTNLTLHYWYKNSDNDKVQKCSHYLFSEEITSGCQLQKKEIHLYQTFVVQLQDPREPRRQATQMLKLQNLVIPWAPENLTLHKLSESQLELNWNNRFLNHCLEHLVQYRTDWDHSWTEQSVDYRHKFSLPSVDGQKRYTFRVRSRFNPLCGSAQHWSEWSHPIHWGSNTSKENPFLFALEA

IL-2 (from UniProt P60568): the Kd was 1 nM.
